Molecular target: T1, Flag-Drosha S300E,S302D (phospho-mimic) (UniProt Q9NRR4 1-1374, S300E | S302D)
T1 construct: Drosha with S300E and S302D, Flag-tagged as m1; also called phospho-mimic Drosha; source: HEK293T, transfected, in lysate
T1 sequence (looked up): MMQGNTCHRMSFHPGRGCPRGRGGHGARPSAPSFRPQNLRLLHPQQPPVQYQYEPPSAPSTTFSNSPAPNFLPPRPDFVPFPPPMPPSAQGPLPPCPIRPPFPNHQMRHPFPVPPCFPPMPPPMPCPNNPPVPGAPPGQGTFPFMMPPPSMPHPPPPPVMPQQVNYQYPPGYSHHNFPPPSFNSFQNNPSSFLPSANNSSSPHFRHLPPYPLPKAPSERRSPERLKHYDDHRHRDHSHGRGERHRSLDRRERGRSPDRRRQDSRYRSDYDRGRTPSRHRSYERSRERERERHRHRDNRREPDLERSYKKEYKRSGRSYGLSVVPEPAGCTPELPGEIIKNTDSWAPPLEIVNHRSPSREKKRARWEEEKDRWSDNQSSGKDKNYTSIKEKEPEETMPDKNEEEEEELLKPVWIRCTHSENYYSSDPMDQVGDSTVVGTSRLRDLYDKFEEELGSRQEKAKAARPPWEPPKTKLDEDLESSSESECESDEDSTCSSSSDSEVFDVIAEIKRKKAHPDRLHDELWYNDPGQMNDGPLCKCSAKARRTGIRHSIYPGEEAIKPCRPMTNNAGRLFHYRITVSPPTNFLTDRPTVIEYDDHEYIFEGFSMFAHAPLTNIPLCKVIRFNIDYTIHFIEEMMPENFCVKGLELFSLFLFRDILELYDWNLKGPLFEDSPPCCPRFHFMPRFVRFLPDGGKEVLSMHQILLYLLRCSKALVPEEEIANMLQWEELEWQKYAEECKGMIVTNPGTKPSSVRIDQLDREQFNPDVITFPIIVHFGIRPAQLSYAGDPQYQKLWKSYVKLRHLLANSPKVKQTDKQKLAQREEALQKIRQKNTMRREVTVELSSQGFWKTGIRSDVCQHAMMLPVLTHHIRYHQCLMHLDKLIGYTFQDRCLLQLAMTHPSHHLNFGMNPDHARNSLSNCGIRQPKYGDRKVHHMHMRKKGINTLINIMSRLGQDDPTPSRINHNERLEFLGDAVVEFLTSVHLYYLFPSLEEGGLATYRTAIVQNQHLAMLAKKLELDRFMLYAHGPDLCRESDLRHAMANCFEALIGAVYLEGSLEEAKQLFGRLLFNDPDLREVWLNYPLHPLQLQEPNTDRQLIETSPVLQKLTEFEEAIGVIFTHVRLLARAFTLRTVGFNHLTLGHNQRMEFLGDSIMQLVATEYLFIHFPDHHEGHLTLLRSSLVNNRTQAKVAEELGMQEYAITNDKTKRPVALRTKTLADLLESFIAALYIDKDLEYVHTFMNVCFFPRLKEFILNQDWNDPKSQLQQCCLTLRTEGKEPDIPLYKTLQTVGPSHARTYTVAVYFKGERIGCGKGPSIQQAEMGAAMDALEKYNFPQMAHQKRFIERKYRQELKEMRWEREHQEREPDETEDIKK
Assay: co-IP; Flag immunoprecipitates of HEK293T cells transfected with Flag-Drosha (WT or mutants), blotted for PLK1 or DGCR8; cells treated with DMSO, RO-520 (100 nM) or NMS (500 nM) for 16 h, or samples with RNase A; mutant panel 72 h after transfection
Conditions: partners not purified

B1: DGCR8 (natural protein, human (endogenous in HEK293T), UniProt Q8WYQ5 1-773, looked up)
chain: METDESPSPLPCGPAGEAVMESRARPFQALPREQSPPPPLQTSSGAEVMDVGSGGDGQSELPAEDPFNFYGASLLSKGSFSKGRLLIDPNCSGHSPRTARHAPAVRKFSPDLKLLKDVKISVSFTESCRSKDRKVLYTGAERDVRAECGLLLSPVSGDVHACPFGGSVGDGVGIGGESADKKDEENELDQEKRVEYAVLDELEDFTDNLELDEEGAGGFTAKAIVQRDRVDEEALNFPYEDDFDNDVDALLEEGLCAPKKRRTEEKYGGDSDHPSDGETSVQPMMTKIKTVLKSRGRPPTEPLPDGWIMTFHNSGVPVYLHRESRVVTWSRPYFLGTGSIRKHDPPLSSIPCLHYKKMKDNEEREQSSDLTPSGDVSPVKPLSRSAELEFPLDEPDSMGADPGPPDEKDPLGAEAAPGALGQVKAKVEVCKDESVDLEEFRSYLEKRFDFEQVTVKKFRTWAERRQFNREMKRKQAESERPILPANQKLITLSVQDAPTKKEFVINPNGKSEVCILHEYMQRVLKVRPVYNFFECENPSEPFGASVTIDGVTYGSGTASSKKLAKNKAARATLEILIPDFVKQTSEEKPKDSEELEYFNHISIEDSRVYELTSKAGLLSPYQILHECLKRNHGMGDTSIKFEVVPGKNQKSEYVMACGKHTVRGWCKNKRVGKQLASQKILQLLHPHVKNWGSLLRMYGRESSKMVKQETSDKSVIELQQYAKKNKPNLHILSKLQEEMKRLAEEREETRKKPKMSIVASAQPGGEPLCTVDV
notes: DGCR8, Microprocessor cofactor of Drosha, detected by blot in Flag immunoprecipitates of HEK293T cells; source: HEK293T lysate (cells transfected with Flag-Drosha only)
fold change of co-precipitated DGCR8 against WT Drosha: 2.5 fold

Reference: paper PMC10531876, “PLK1 Regulates MicroRNA Biogenesis through Drosha Phosphorylation” (International Journal of Molecular Sciences, 2023)
